This passage reports fraction of the interaction detected with active Rab32 Q85L results from PMC4355727.

In the assay the target is FLAG-tagged Rab32 T39N (UniProt Q13637). Nature of the assay: co-IP.
Sequence of UniProt Q13637 (Q13637 whole entry T39N): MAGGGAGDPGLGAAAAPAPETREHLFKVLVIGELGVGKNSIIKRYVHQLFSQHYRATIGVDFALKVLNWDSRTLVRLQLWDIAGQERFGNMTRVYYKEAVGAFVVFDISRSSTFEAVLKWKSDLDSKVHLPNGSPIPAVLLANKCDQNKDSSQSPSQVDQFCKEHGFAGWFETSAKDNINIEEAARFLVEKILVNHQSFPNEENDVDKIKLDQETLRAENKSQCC

Consider HA-tagged Drp1 S656A (natural protein), for which the fraction of the interaction detected with active Rab32 Q85L came out at 0.25.
